{"source": "paper PMC2615625", "key": {"[1]": {"target": "T1, NM23-H2 wild type (UniProt P22392 1-152)", "T1 sequence (P22392 whole entry)": "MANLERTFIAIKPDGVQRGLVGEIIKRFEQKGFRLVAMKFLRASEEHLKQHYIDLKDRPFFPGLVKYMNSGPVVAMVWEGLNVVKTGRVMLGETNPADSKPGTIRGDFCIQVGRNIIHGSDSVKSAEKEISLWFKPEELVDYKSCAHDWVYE", "test": "EMSA with FRET detection"}, "[2]": {"target": "NM23-H2 H118C (UniProt P22392 1-152, H118C)", "sequence (P22392 whole entry H118C)": "as the sequence (P22392 whole entry) above, with H118C counted along it", "test": "EMSA with FRET detection"}, "[3]": {"target": "NM23-H2 K12A (UniProt P22392 1-152, K12A)", "sequence (P22392 whole entry K12A)": "as the sequence (P22392 whole entry) above, with K12A counted along it", "test": "EMSA with FRET detection"}, "[4]": {"target": "T1, NM23-H2 wild type", "test": "EMSA"}}, "data": [{"binder": "TGGGGAGGGTGGGGAGGGTGGGGAAGG (structured_DNA)", "note": "[FG27T]", "values": [{"measurement": "binding result", "setting": "[1]", "result": "binds"}, {"measurement": "binding result", "setting": "[2]", "result": "binds"}, {"measurement": "binding result", "setting": "[3]", "result": "binds"}]}, {"binder": "TGGGGAGGGTGGGGAGGGTGGGGAAGG (structured_DNA)", "note": "[c-MYC NHE G4 27-mer]", "values": [{"measurement": "binding result", "setting": "[4]", "result": "binds"}]}]}
